According to patent publication US20230357414A1 (SYNTHEKINE, published 2023):

T1: extracellular domain of mouse IL12Rb2 (614 amino acids, amino acids 24-637 of the mIL12Rb2 precursor, UniProt … (mouse, UniProt P97378 24-637))
T1 construct: also called mIL12Rb2 ECD; mIL12Rb2 ECD antigen
T1 sequence: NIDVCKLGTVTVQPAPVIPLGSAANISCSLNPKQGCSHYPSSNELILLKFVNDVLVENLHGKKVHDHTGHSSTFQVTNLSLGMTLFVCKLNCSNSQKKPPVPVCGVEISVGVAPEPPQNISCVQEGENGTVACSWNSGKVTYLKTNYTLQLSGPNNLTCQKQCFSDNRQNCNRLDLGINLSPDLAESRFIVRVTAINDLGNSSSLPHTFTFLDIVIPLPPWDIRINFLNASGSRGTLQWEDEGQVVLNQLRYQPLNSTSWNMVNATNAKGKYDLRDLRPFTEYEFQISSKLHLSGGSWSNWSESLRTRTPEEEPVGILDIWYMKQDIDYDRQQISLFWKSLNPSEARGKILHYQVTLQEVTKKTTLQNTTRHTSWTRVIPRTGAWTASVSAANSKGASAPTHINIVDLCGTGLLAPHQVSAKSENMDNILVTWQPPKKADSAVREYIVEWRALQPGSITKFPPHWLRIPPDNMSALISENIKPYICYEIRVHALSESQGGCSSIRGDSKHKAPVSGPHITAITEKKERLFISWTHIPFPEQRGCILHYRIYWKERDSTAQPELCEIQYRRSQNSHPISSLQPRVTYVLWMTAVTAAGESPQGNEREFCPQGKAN

B1: mIL12Rb2 VHH15 (VHH)
VHH: QVQLQESGGGSVQDGGSLRLSCAASGDIYARNCMGWFRQAPGKEREKIAVADTGGRSPYYADSVKGRFTISRDNAKNTVDLQMNSLKPEDTAVYYCAAGPLVPVVNTAARCVYEYWGQGTQVTVSS
notes: Camel VHH, tested as a periplasmic extract of a phage clone; also called anti-mouse IL12Rb2 VHH15; not shown: HA/His tag encoded by the pMECS phagemid
B2: mIL12Rb2 VHH10 (VHH)
VHH: QVQLQESGGGSVQAGGSLRLSCAASGYTFSNHHMGWFRQAPGKEREGVAAIYTGAGNIYYADSVKDRFTISKDTAKNTLYLQMNSLTPEDTGMYYCAADLTRWYSGGWRDPRGYKYWGQGTQVTVSS
notes: Camel VHH, tested as a periplasmic extract of a phage clone; also called anti-mouse IL12Rb2 VHH10; not shown: HA/His tag encoded by the pMECS phagemid
B3: mIL12Rb2 VHH11 (VHH)
VHH: QVQLQESGGGPVQAGGSLRLSCAASGYTFSNHHMGWFRQAPGKEREGVAAIYTGAGNIYYADSVKDRFTISKDTAKNTLYLQMNSLTPEDTGMYYCAADLTRWYSGGWRDPRGYKYWGQGTQVTVSS
notes: Camel VHH, tested as a periplasmic extract of a phage clone; also called anti-mouse IL12Rb2 VHH11; not shown: HA/His tag encoded by the pMECS phagemid
B4: mIL12Rb2 VHH12 (VHH)
VHH: QVQLQESGGGVVQPGGSLRLSCAASGYTFSNHHMGWFRQAPGKEREGVAAIYTGAGNIYYADSVKDRFTISKDTAKNTLYLQMNSLTPEDTGMYYCAADLTRWYSGGWRDPRGYKYWGQGTQVTVSS
notes: Camel VHH, tested as a periplasmic extract of a phage clone; also called anti-mouse IL12Rb2 VHH12; not shown: HA/His tag encoded by the pMECS phagemid
B5: mIL12Rb2 VHH13 (VHH)
VHH: QVQLQESGGGSVQAGGSLRLSCAVSGYTFSNHHMGWFRQAPGKEREGVAAIYTGAGNIYYADSVKDRFTISKDTAKNTLYLQMNSLTPEDTGMYYCAADLTRWYSGGWRDPRGYKYWGQGTQVTVSS
notes: Camel VHH, tested as a periplasmic extract of a phage clone; also called anti-mouse IL12Rb2 VHH13; not shown: HA/His tag encoded by the pMECS phagemid
B6: mIL12Rb2 VHH14 (VHH)
VHH: QVQLQESGGGSVQAGGSLRLSCAASGATNSNRHMGWFRQAPGKEREGVAAIYTGYTGGGNTYYADSVRDRFTISQDNAKNTLYLQMNSLTPEDTAMYYCAADLTRWYSGGWRDPRGYKYWGQGTQVTVSS
notes: Camel VHH, tested as a periplasmic extract of a phage clone; also called anti-mouse IL12Rb2 VHH14; not shown: HA/His tag encoded by the pMECS phagemid
B7: mIL12Rb2 VHH16 (VHH)
VHH: QVQLQESGGGSVQAGGSLRLSCAASGATNSNRHMGWFRQAPGKEREGVAAIYTGYTGGGNTYYADSVKDRFTISQDNAKNTLYLQMNSLTPEDTAMYYCAADLTRWYSGGWRDPRGYKYWGQGTQVTVSS
notes: Camel VHH, tested as a periplasmic extract of a phage clone; also called anti-mouse IL12Rb2 VHH16; not shown: HA/His tag encoded by the pMECS phagemid

Each binder was assayed against T1, extracellular domain of mouse IL12Rb2 … (assay: periplasmic extract ELISA on antigen-coated plate; positive if A450 at least threefold over PBS-coated control).
Experimental: Upon completion of the biopanning of Example 3, three 96-well plates of individual phage clones were isolated in order to perform periplasmic extract ELISA (PE-ELISA) on IL12Rb2 coated plates to identify positive VHH binders that selectively bound IL12Rb2. A 96-well plate was coated with IL12Rb2 and PBS under the same conditions. Next, wells were blocked at 37° C. for 1 h. Then, 100 μl of extracted antibodies was added to each well and incubated for 1 h. Subsequently, 100 μl of anti-tag polyclonal antibody conjugated to HRP was added to each well and incubated at 37° C. for 1 h. Plates were developed with TMB substrate. The reaction was stopped by the addition of H2SO4. Absorbance at 450 nm was read on a microtiter plate reader. Antibodies with absorbance of the antigen-coated well at least threefold greater than PBS-coated control are VHHs that specifically bind to IL 12Rb2. Positive clones were sequenced, and sequences analyzed to identify unique clonotypes
B1: binds. B2: binds. B3: binds. B4: binds. B5: binds. B6: binds. B7: binds.
